From paper PMC4838380 (Nucleic Acids Research, 2016) come the findings set out here.

In general, stoichiometry N refers to a count of units in the complex or per binding partner.

This data set concerns the molecule itself. In words: SEC. A general note: In gel filtration, larger molecules generally elute earlier.

B1: Endonuclease MS from Thermococcus kodakarensis (TkoEndoMS), protein encoded by TK1898 (enzyme, UniProt Q5JER9 1-252, looked up)
chain: MSKDKVTVITSPSTEELVSLVNSALLEEAMLTIFARCKVHYDGRAKSELGSGDRVIIVKPDGSFLIHQSKKREPVNWQPPGSRVRLELRENPVLVSIRRKPRETLEVELEEVYMVSVFRAEDYEELALTGSEAEMAELIFENPEVIEPGFKPLFREKAIGTGIVDVLGRDSDGNIVVLELKRRRAELHAVRQLKSYVEILREEYGDKVRGILVAPSLTSGAKRLLEKEGLEFRKLEPPKRDSKKKGRQKTLF
Turning to B1, the “stoichiometry N” value worked out at 2.
